Target: the molecule itself
Assay: ITC

B1: HDP1 DNA-binding domain (HDP1 aa2991-3078) (domain or fragment, P. falciparum, UniProt A0A2I0C2C6 2991-3078, looked up)
chain: SEVQVSNINTPSSYNISARRRRRIGNNGPPSAEELNRLLNIQHLTIPEIATIYGVHRTTIARWCNIRNITSNSMNNSPGKRRKNEDNK
- binding result: binds

Source: article PMC8852293 (Nature microbiology, 2020)
